Assay results as given in US20240209076A1 (KODIAK SCIENCES, published 2024).

Legend:
human IL-6 [1] = biological target: T1, human IL-6 (human, UniProt P05231 30-212); experiment: SPR Biacore, supernatant, Protein A capture, 37 C
Summary of the method: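 Antibodies from 1:20-diluted culture supernatant in HBS-EP+ were captured on a Protein A chip at 37 C, with 10 mM glycine pH 1.7 regeneration. Sensorgrams were double-reference subtracted and fitted to a 1:1 Langmuir model.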

human IL-6 [2] = biological target: T1, human IL-6; experiment: SPR Biacore, purified, Protein A capture, 37 C
Method: Antibodies were captured on a Protein A chip (GE) by injecting 1:20 cell supernatant dilutions at 10 μL/min for 60 seconds. […] The sensor chip was regenerated by a 60 seconds injection of 10 mM Glycine pH 1.7 at the flow rate of 50 μL/min. […] For this setup, 1 μg/mL of purified antibody was injected over a Protein A chip at 10 μL/min for 25 seconds. […] The sensor chip was regenerated by a 60 seconds injection of 10 mM Glycine pH 1.7 at flow rate of 50 μL/min. Data analysis for supernatant and purified samples were performed using BIAevaluation software (GE). All sensorgrams were double reference subtracted and fit using a 1:1 Langmuir binding model.

recombinant human IL-6 [3] = biological target: T2, recombinant human IL-6 (human, UniProt P05231 30-212); experiment: SPR Biacore, supernatant dual inhibitor on Protein A chip, IL-6 analyte, 25 C
T2 construct: Bought protein
T2 sequence (P05231 30-212 limits assumed): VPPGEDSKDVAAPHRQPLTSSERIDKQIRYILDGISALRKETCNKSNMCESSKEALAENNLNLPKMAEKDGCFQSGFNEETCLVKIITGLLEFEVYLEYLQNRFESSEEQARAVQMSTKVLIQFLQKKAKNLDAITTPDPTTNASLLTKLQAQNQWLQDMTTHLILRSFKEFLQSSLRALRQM

recombinant human IL-6 [4] = biological target: T2, recombinant human IL-6; experiment: SPR Biacore, purified dual inhibitor on Protein A chip, IL-6 analyte, 37 C

T1 sequence (P05231 30-212 limits assumed): as above

| Binder | Kd (human IL-6 [1]) | koff (human IL-6 [1]) | kon (human IL-6 [1]) | Kd (human IL-6 [2]) | koff (human IL-6 [2]) | kon (human IL-6 [2]) | Kd (recombinant human IL-6 [3]) | koff (recombinant human IL-6 [3]) | kon (recombinant human IL-6 [3]) | Kd (recombinant human IL-6 [4]) | koff (recombinant human IL-6 [4]) | kon (recombinant human IL-6 [4]) |
| --- | --- | --- | --- | --- | --- | --- | --- | --- | --- | --- | --- | --- |
| Anti-IL-6 antibody, heavy chain S35H, G66D, L100S / light chain M32L, M50D, N52S, M88Q (antibody, IgG1, V domains shown, IgG1; variable domains only; VL is variant III) VH: EVQLVESGGGLVQPGGSLRLSCAASGFTFSPFAMHWVRQAPGKGLEWVAKISPGGSWTYYSDTVTDRFTFSLDTSKSTAYLQMNSLRAEDTAVYYCARQSWGYYALDIWGQGTLVTVSS VL: DIQLTQSPSSLSASVGDRVTITCSASISVSYLYWYQQKPGKAPKLLIYDDSSLASGVPSRFSGSGSGTDFTLTISSLQPEDFATYYCQQWSGYPYTFGQGTKVEIK | 0.114 nM | 0.000913 s⁻¹ | 8.03e+06 M⁻¹ s⁻¹ | 0.117 nM | 0.000424 s⁻¹ | 3.61e+06 M⁻¹ s⁻¹ |  |  |  |  |  |  |
| Anti-IL-6 antibody, heavy chain S35H, G66D, L100G / light chain M32L, M50D, N52S, M88Q (antibody, IgG1, V domains shown, IgG1; variable domains only; VL is variant III) VH: EVQLVESGGGLVQPGGSLRLSCAASGFTFSPFAMHWVRQAPGKGLEWVAKISPGGSWTYYSDTVTDRFTFSLDTSKSTAYLQMNSLRAEDTAVYYCARQGWGYYALDIWGQGTLVTVSS VL: DIQLTQSPSSLSASVGDRVTITCSASISVSYLYWYQQKPGKAPKLLIYDDSSLASGVPSRFSGSGSGTDFTLTISSLQPEDFATYYCQQWSGYPYTFGQGTKVEIK | 0.233 nM | 0.0016 s⁻¹ | 6.87e+06 M⁻¹ s⁻¹ | 0.251 nM | 0.000694 s⁻¹ | 2.76e+06 M⁻¹ s⁻¹ |  |  |  |  |  |  |
| Anti-IL-6 antibody, heavy chain S35H, G66D, L100K / light chain M32L, M50D, N52S, M88Q (antibody, IgG1, V domains shown, IgG1; variable domains only; VL is variant III) VH: EVQLVESGGGLVQPGGSLRLSCAASGFTFSPFAMHWVRQAPGKGLEWVAKISPGGSWTYYSDTVTDRFTFSLDTSKSTAYLQMNSLRAEDTAVYYCARQKWGYYALDIWGQGTLVTVSS VL: DIQLTQSPSSLSASVGDRVTITCSASISVSYLYWYQQKPGKAPKLLIYDDSSLASGVPSRFSGSGSGTDFTLTISSLQPEDFATYYCQQWSGYPYTFGQGTKVEIK | 0.191 nM | 0.000822 s⁻¹ | 4.29e+06 M⁻¹ s⁻¹ | 0.188 nM | 0.000279 s⁻¹ | 1.49e+06 M⁻¹ s⁻¹ |  |  |  |  |  |  |

Now from value to binder:

| Kd (human IL-6 [1]) | koff (human IL-6 [1]) | kon (human IL-6 [1]) | Kd (human IL-6 [2]) | koff (human IL-6 [2]) | kon (human IL-6 [2]) | Kd (recombinant human IL-6 [3]) | koff (recombinant human IL-6 [3]) | kon (recombinant human IL-6 [3]) | Kd (recombinant human IL-6 [4]) | koff (recombinant human IL-6 [4]) | kon (recombinant human IL-6 [4]) | Binder |
| --- | --- | --- | --- | --- | --- | --- | --- | --- | --- | --- | --- | --- |
| 0.649 nM | 0.000559 s⁻¹ | 861000 M⁻¹ s⁻¹ | 0.214 nM | 0.000132 s⁻¹ | 615000 M⁻¹ s⁻¹ |  |  |  |  |  |  | Anti-IL-6 antibody, heavy chain WT / light chain WT (antibody, IgG1, V domains shown, IgG1; variable domains only; also called parent; wild-type) VH: EVQLVESGGGLVQPGGSLRLSCAASGFTFSPFAMSWVRQAPGKGLEWVAKISPGGSWTYYSDTVTGRFTFSLDTSKSTAYLQMNSLRAEDTAVYYCARQLWGYYALDIWGQGTLVTVSS VL: DIQLTQSPSSLSASVGDRVTITCSASISVSYMYWYQQKPGKAPKLLIYDMSNLASGVPSRFSGSGSGTDFTLTISSLQPEDFATYYCMQWSGYPYTFGQGTKVEIK |
|  |  |  |  |  |  | 0.282 nM | 0.000178 s⁻¹ | 629000 M⁻¹ s⁻¹ | 0.452 nM | 0.000579 s⁻¹ | 1.28e+06 M⁻¹ s⁻¹ | dual inhibitor molecule K (AntiIL-6-VEGF Trap) (other, Trap-antibody fusion, VEGF trap between the Fab region (VH variant II) and the Fc; light chain variant IV) heavy: EVQLVESGGGLVQPGGSLRLSCAASGFTFSPFAWSWVRQAPGKGLEWVAKISPGGSWTYYSDTVTDRFTFSLDTSKSTAYLQMNSLRAEDTAVYYCARQLWGYYALDVWGQGTLVTVSSASTKGPSVFPLAPSSKSTSGGTAALGCLVKDYFPEPVTVSWNSGALTSGVHTFPAVLQSSGLYSLSSVVTVPSSSLGTQTYICNVNHKPSNTKVDKKVEPKSCGGGGSGGGGSSDTGRPFVEMYSEIPEIIHMTEGRELVIPCRVTSPNITVTLKKFPLDTLIPDGKRIIWDSRKGFIISNATYKEIGLLTCEATVNGHLYKTNYLTHRQTNTIIDVVLSPSHGIELSVGEKLVLNCTARTELNVGIDFNWEYPSSKHQHKKLVNRDLKTQSGSEMKKFLSTLTIDGVTRSDQGLYTCAASSGLMTKKNSTFVRVHEKDKTHTCPPCPAPEAAGAPSVFLFPPKPKDTLMISRTPEVTCVVVDVSHEDPEVKFNWYVDGVEVHNAKTKPREEQYNSTYRVVSVLTVLHQDWLNGKEYKCKVSNKALPAPIEKTISKAKGQPREPQVYTLPPSREEMTKNQVSLTCLVKGFYPSDIAVEWESNGQPENNYKTTPPVLDSDGSFFLYSKLTVDKSRWQQGNVFSCSVMHEALHNHYTQKSLSCSPGK light: DIQLTQSPSSLSASVGDRVTITCSASISVSYLYWYQQKPGKAPKLLIYDASSLASGVPSRFSGSGSGTDFTLTISSLQPEDFATYYCQQWSGYPYTFGQGTKVEIKRTVAAPSVFIFPPSDEQLKSGTASVVCLLNNFYPREAKVQWKVDNALQSGNSQESVTEQDSKDSTYSLSSTLTLSKADYEKHKVYACEVTHQGLSSPVTKSFNRGEC |
|  |  |  |  |  |  | 0.239 nM | 0.000169 s⁻¹ | 705000 M⁻¹ s⁻¹ | 0.436 nM | 0.00065 s⁻¹ | 1.49e+06 M⁻¹ s⁻¹ | dual inhibitor molecule L (AntiIL-6-VEGF Trap) (other, Trap-antibody fusion, VEGF trap between the Fab region (VH variant II) and the Fc; light chain variant V) heavy: EVQLVESGGGLVQPGGSLRLSCAASGFTFSPFAWSWVRQAPGKGLEWVAKISPGGSWTYYSDTVTDRFTFSLDTSKSTAYLQMNSLRAEDTAVYYCARQLWGYYALDVWGQGTLVTVSSASTKGPSVFPLAPSSKSTSGGTAALGCLVKDYFPEPVTVSWNSGALTSGVHTFPAVLQSSGLYSLSSVVTVPSSSLGTQTYICNVNHKPSNTKVDKKVEPKSCGGGGSGGGGSSDTGRPFVEMYSEIPEIIHMTEGRELVIPCRVTSPNITVTLKKFPLDTLIPDGKRIIWDSRKGFIISNATYKEIGLLTCEATVNGHLYKTNYLTHRQTNTIIDVVLSPSHGIELSVGEKLVLNCTARTELNVGIDFNWEYPSSKHQHKKLVNRDLKTQSGSEMKKFLSTLTIDGVTRSDQGLYTCAASSGLMTKKNSTFVRVHEKDKTHTCPPCPAPEAAGAPSVFLFPPKPKDTLMISRTPEVTCVVVDVSHEDPEVKFNWYVDGVEVHNAKTKPREEQYNSTYRVVSVLTVLHQDWLNGKEYKCKVSNKALPAPIEKTISKAKGQPREPQVYTLPPSREEMTKNQVSLTCLVKGFYPSDIAVEWESNGQPENNYKTTPPVLDSDGSFFLYSKLTVDKSRWQQGNVFSCSVMHEALHNHYTQKSLSCSPGKPGK light: DIQLTQSPSSLSASVGDRVTITCSASISVSYLYWYQQKPGKAPKLLIYDDSNLASGVPSRFSGSGSGTDFTLTISSLQPEDFATYYCQQWSGYPYTFGQGTKVEIKRTVAAPSVFIFPPSDEQLKSGTASVVCLLNNFYPREAKVQWKVDNALQSGNSQESVTEQDSKDSTYSLSSTLTLSKADYEKHKVYACEVTHQGLSSPVTKSFNRGEC |
